Laboratory results as given in the supplement of paper PMC10065799, “High-throughput profiling of sequence recognition by tyrosine kinases and SH2 domains using bacterial peptide display” (eLife, 2023).
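Also: 11-residue human phosphosite peptides and single-mutation variants displayed on the E. coli surface, counted by deep sequencing, each peptide's frequency after selection divided by its frequency in the unselected input library; frequency after pTyr selection over input frequency; kinase dosed for 20-30% of maximal phosphorylation in three min.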

These sequences were tested against FGFR3 (UniProt P22607) (assay: phosphorylation enrichment, bacterial display (enrichment ratio); higher = better substrate or ligand; peptides without Tyr show the background).
Chain of FGFR3 (P22607 whole entry, looked up): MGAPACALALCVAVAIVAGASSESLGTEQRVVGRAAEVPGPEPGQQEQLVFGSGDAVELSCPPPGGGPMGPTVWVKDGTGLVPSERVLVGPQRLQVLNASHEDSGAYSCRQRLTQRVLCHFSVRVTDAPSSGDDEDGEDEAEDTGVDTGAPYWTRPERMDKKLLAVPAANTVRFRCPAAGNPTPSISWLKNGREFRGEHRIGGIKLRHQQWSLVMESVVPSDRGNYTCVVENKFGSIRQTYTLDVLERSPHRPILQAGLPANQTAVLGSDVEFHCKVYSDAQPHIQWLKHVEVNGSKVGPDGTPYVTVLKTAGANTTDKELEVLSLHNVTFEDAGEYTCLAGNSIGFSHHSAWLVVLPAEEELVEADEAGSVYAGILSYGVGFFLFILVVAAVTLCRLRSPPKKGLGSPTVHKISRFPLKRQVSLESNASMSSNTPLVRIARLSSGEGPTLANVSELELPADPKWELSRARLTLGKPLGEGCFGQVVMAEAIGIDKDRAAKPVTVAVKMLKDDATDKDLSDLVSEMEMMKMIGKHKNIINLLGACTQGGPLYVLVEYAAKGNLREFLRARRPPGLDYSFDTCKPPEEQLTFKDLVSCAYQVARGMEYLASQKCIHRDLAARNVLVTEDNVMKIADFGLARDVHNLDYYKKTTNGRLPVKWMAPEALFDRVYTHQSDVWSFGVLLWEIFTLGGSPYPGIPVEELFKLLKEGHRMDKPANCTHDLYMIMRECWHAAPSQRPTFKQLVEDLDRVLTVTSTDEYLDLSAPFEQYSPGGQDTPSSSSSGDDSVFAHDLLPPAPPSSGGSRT
Work on PRIHSYRGHLW [VHL_Y112_R107P] yielded a phosphorylation enrichment of 0.579.
Sequence RELSWYRGQRP [HESX1_Y106_R109Q] has a phosphorylation enrichment of 0.541.
STFVPCEIKVQ [L1CAM_Y784_Y784C] was tested, and the phosphorylation enrichment was 1.05.
NPQKSYFILLF [WAS_Y83_R86L_YF] gave a phosphorylation enrichment of 0.906.
PADSGYPAYLG [ATP6V1A_Y374] showed a phosphorylation enrichment of 0.892.
SFPSTYRFERG [INPPL1_Y661_P659S_YF] gave a phosphorylation enrichment of 0.538.
YGMQLYQKYMH [GRB14_Y347_N349K] showed a phosphorylation enrichment of 0.581.
For RAIGYYSATSK [FAM120A_Y328], the phosphorylation enrichment was 0.453.
IMAFFYMCDRA [CASD1_Y382_YF] showed a phosphorylation enrichment of 1.12.
With EEEPVYKAEPE [HCLS1_Y360_E361K] the phosphorylation enrichment was 0.891.
Sequence EEAAGYAQESQ [CAMKV_Y491] has a phosphorylation enrichment of 0.691.
Sequence RPFFLYVAFHN [SGSH_Y174_D179N] has a phosphorylation enrichment of 0.837.
RFLKDYGEFEV [GINS1_Y156_C152Y_YF] showed a phosphorylation enrichment of 0.877.
For FGAHNHHPLPV [OAT_Y55_Y55H_YF], the phosphorylation enrichment was 0.694.
ERSMSYSDESR [SMG1_Y143] showed a phosphorylation enrichment of 0.63.
For DLEKTYNTFRS [B4GALNT2_Y538_A533D_YF], the phosphorylation enrichment was 0.55.
In the case of ARAHKYHGGGG [HBB_Y146_L142R], the phosphorylation enrichment is reported as 0.371.
In the case of LTKQEYDEAGP [ACTA1_Y364_I359L], the phosphorylation enrichment is reported as 1.07.
In the case of YDGKEYDPVEA [MAPRE2_Y167], the phosphorylation enrichment is reported as 0.836.
With KDPPDYKYQPR [SOX9_Y172_H169P] the phosphorylation enrichment was 0.479.
For NVLPEYKLQAP [KCNH2_Y388_D383N], the phosphorylation enrichment was 0.619.
VRTGIYHGGEP [PIK3CA_Y361] was tested, and the phosphorylation enrichment was 0.407.
PLGVLYKVKVY [PTS_Y128_V124L] was tested, and the phosphorylation enrichment was 0.82.
Sequence HKANEYYPVVI [ADAMTS18_Y764_L769I] has a phosphorylation enrichment of 13.1.
RAQIRYAQEHD [NSD1_Y1987_R1984Q] showed a phosphorylation enrichment of 0.768.
Work on RSSKMYPKTRS [LPL_Y329_L330P] yielded a phosphorylation enrichment of 0.624.
IEELTYIIKQD [STX5_Y137] gave a phosphorylation enrichment of 0.665.
For GRVFVYRLSEQ [ITGAE_Y551_YF], the phosphorylation enrichment was 0.663.
IYHLSYLHNCE [PDE6B_Y227] gave a phosphorylation enrichment of 1.74.
CDGKEYDPVEA [MAPRE2_Y167_Y162C] gave a phosphorylation enrichment of 0.721.
Work on PGAPAYRVLME [MYO5A_Y1245] yielded a phosphorylation enrichment of 0.726.
AVARPYHIQKW [ACSBG1_Y677_A673V] was tested, and the phosphorylation enrichment was 0.506.
Sequence QRIHNYFEHRF [HCN4_Y554_D553N_YF] has a phosphorylation enrichment of 0.374.

Each sequence was assayed against EPHB1 (UniProt P54762) in the same assay as above.
Chain of EPHB1 (P54762 whole entry, looked up): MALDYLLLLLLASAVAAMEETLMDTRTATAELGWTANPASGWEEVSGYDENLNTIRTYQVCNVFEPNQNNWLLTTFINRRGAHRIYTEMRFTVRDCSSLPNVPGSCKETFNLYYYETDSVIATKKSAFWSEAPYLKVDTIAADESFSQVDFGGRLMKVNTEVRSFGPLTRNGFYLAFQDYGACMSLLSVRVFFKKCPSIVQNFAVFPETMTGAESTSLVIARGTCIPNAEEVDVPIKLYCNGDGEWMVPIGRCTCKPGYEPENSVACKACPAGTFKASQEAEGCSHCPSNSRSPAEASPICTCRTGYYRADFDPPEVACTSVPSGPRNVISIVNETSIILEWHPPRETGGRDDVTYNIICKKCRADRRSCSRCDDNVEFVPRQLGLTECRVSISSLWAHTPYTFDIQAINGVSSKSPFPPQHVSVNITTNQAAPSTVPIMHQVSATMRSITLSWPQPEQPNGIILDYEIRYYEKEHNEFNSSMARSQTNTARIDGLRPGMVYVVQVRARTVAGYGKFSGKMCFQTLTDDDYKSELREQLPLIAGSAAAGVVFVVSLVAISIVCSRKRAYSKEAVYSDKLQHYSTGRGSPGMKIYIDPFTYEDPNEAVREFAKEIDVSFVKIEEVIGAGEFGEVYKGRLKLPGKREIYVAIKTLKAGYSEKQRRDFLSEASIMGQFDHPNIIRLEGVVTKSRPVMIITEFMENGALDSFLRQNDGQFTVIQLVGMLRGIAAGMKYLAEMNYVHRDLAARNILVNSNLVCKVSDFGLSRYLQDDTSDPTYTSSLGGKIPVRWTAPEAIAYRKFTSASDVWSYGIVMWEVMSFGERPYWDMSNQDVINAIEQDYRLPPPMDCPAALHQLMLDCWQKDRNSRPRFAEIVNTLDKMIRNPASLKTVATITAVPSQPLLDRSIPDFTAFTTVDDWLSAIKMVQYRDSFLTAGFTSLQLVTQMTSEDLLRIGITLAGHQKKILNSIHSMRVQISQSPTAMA
Work on PRIHSYRGHLW [VHL_Y112_R107P] yielded a phosphorylation enrichment of 1.56.
RELSWYRGQRP [HESX1_Y106_R109Q] showed a phosphorylation enrichment of 0.581.
In the case of STFVPCEIKVQ [L1CAM_Y784_Y784C], the phosphorylation enrichment is reported as 0.685.
NPQKSYFILLF [WAS_Y83_R86L_YF] showed a phosphorylation enrichment of 0.546.
With PADSGYPAYLG [ATP6V1A_Y374] the phosphorylation enrichment was 1.77.
Work on SFPSTYRFERG [INPPL1_Y661_P659S_YF] yielded a phosphorylation enrichment of 0.345.
YGMQLYQKYMH [GRB14_Y347_N349K] gave a phosphorylation enrichment of 1.15.
RAIGYYSATSK [FAM120A_Y328] was tested, and the phosphorylation enrichment was 0.622.
Work on IMAFFYMCDRA [CASD1_Y382_YF] yielded a phosphorylation enrichment of 0.938.
In the case of EEEPVYKAEPE [HCLS1_Y360_E361K], the phosphorylation enrichment is reported as 0.573.
In the case of EEAAGYAQESQ [CAMKV_Y491], the phosphorylation enrichment is reported as 0.523.
For RPFFLYVAFHN [SGSH_Y174_D179N], the phosphorylation enrichment was 0.74.
Sequence RFLKDYGEFEV [GINS1_Y156_C152Y_YF] has a phosphorylation enrichment of 0.497.
Sequence FGAHNHHPLPV [OAT_Y55_Y55H_YF] has a phosphorylation enrichment of 0.393.
For ERSMSYSDESR [SMG1_Y143], the phosphorylation enrichment was 0.541.
Work on DLEKTYNTFRS [B4GALNT2_Y538_A533D_YF] yielded a phosphorylation enrichment of 0.445.
For ARAHKYHGGGG [HBB_Y146_L142R], the phosphorylation enrichment was 0.246.
Work on LTKQEYDEAGP [ACTA1_Y364_I359L] yielded a phosphorylation enrichment of 0.696.
In the case of YDGKEYDPVEA [MAPRE2_Y167], the phosphorylation enrichment is reported as 0.772.
With KDPPDYKYQPR [SOX9_Y172_H169P] the phosphorylation enrichment was 0.489.
In the case of NVLPEYKLQAP [KCNH2_Y388_D383N], the phosphorylation enrichment is reported as 0.518.
VRTGIYHGGEP [PIK3CA_Y361] was tested, and the phosphorylation enrichment was 0.419.
Work on PLGVLYKVKVY [PTS_Y128_V124L] yielded a phosphorylation enrichment of 0.674.
Sequence HKANEYYPVVI [ADAMTS18_Y764_L769I] has a phosphorylation enrichment of 1.01.
For RAQIRYAQEHD [NSD1_Y1987_R1984Q], the phosphorylation enrichment was 0.458.
RSSKMYPKTRS [LPL_Y329_L330P] showed a phosphorylation enrichment of 0.359.
IEELTYIIKQD [STX5_Y137] gave a phosphorylation enrichment of 0.55.
GRVFVYRLSEQ [ITGAE_Y551_YF] was tested, and the phosphorylation enrichment was 0.494.
IYHLSYLHNCE [PDE6B_Y227] gave a phosphorylation enrichment of 0.778.
For CDGKEYDPVEA [MAPRE2_Y167_Y162C], the phosphorylation enrichment was 0.64.
With PGAPAYRVLME [MYO5A_Y1245] the phosphorylation enrichment was 0.397.
AVARPYHIQKW [ACSBG1_Y677_A673V] showed a phosphorylation enrichment of 0.381.
QRIHNYFEHRF [HCN4_Y554_D553N_YF] gave a phosphorylation enrichment of 0.543.
